Laboratory results: patent US20220396612A1 (UNIVERSIT DE TOURS, published 2022)

How the values were obtained:
[1] = target: T1, virus-like particles (VLPs) of BK polyomavirus VP-1 protein, serotype Ia (BK virus (BKPyV), serotype Ia, UniProt P03088 1-361); experiment: ELISA on coated VLP; supernatant 1/40
T1 construct: self-assembled native VLPs coated on ELISA plates; also called VLP Ia; BKV VP-1, serotype Ia
T1 chain: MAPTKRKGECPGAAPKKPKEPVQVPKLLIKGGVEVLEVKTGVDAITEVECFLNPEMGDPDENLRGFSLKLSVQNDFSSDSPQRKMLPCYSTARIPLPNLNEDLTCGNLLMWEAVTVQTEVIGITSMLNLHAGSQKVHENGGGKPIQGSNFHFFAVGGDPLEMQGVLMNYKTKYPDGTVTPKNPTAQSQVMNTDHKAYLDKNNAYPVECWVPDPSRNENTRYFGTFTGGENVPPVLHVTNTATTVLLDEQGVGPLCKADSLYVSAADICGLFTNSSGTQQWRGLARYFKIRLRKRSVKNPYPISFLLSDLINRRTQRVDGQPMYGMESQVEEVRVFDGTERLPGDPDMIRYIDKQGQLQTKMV
Procedure: (§1) To do this, the VLPs produced were deposited at a concentration of 1 μg/mL in PBS and incubated overnight at +4° C. The wells were then blocked for 1 h at +37° C. with a PBS/FCS (phosphate-buffered saline/fetal calf serum) mixture. After dilution in a dilution buffer containing FCS, PBS and Tween® 20, the various hybridoma culture supernatants were added for 1 h at +37° C. The wells were washed four times in a row with Wash Buffer and a secondary anti-mouse antibody coupled to peroxidase was added to the 1:2000 dilution for 1 h at +37° C. The wells were washed four more times and the substrate (OPD (ortho phenylene diamine)+H₂O₂) was added for 30 min at room temperature. A stop solution (H₂SO₄ 4N) was then added and each well was read by measuring the absorbance at 492 nm with a spectrophotometer. The value obtained for the average of the control wells (PBS in the first step) is subtracted from the optical density values obtained for each well.

[2] = target: T2, virus-like particles (VLPs) of BK polyomavirus VP-1 protein, serotype Ib2 (BK virus (BKPyV), serotype Ib2, PA …, UniProt P03088 1-362); experiment: ELISA on coated VLP; supernatant 1/40
T2 construct: native VLPs; also the immunogen; also called VLP Ib2; BK Ib2
T2 chain: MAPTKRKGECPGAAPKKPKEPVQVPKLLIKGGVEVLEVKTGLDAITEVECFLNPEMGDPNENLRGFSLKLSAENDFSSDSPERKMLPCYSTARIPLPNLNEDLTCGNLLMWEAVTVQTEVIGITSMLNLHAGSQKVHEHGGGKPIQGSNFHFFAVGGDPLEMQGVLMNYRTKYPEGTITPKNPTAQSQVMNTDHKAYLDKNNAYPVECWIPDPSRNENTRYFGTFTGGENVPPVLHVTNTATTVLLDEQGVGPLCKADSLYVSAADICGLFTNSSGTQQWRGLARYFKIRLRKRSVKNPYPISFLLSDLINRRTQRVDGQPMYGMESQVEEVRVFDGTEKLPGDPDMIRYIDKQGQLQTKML
Procedure: as §1

[3] = target: T3, virus-like particles (VLPs) of BK polyomavirus VP-1 protein, serotype II (BK virus (BKPyV), serotype II, UniProt P14996 1-362); experiment: ELISA on coated VLP; supernatant 1/40
T3 construct: native VLPs; also called VLP II
T3 chain: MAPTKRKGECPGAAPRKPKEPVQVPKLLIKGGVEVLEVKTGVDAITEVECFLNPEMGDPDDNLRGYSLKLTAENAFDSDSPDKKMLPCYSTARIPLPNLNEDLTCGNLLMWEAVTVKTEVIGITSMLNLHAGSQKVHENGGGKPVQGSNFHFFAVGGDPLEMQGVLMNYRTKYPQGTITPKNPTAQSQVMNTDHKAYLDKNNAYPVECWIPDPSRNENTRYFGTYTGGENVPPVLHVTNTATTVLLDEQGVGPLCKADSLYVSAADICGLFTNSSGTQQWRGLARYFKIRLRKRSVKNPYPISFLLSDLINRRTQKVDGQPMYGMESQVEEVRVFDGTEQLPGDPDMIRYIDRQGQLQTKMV
Procedure: as §1

[4] = target: T4, virus-like particles (VLPs) of BK polyomavirus VP-1 protein, serotype IV (BK virus (BKPyV), serotype IV, UniProt P14996 1-362); experiment: ELISA on coated VLP; supernatant 1/40
T4 construct: native VLPs; also called VLP IV
T4 chain: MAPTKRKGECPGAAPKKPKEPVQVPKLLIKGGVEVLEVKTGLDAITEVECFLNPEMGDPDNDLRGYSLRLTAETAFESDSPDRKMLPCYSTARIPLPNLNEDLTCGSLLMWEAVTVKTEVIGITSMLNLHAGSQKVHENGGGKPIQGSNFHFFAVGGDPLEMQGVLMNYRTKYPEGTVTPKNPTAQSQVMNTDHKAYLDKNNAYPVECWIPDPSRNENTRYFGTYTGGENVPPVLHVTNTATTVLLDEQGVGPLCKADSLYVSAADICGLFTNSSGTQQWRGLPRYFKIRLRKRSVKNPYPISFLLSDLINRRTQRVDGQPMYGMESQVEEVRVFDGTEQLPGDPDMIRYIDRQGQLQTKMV
Procedure: as §1

[5] = target: T1, virus-like particles (VLPs) of BK …; experiment: ELISA on coated VLP; supernatant 1/80
Procedure: as §1

[6] = target: T2, virus-like particles (VLPs) of BK …; experiment: ELISA on coated VLP; supernatant 1/80
Procedure: as §1

[7] = target: T3, virus-like particles (VLPs) of BK …; experiment: ELISA on coated VLP; supernatant 1/80
Procedure: as §1

[8] = target: T4, virus-like particles (VLPs) of BK …; experiment: ELISA on coated VLP; supernatant 1/80
Procedure: as §1

[9] = target: T1, virus-like particles (VLPs) of BK …; experiment: ELISA on coated VLP; supernatant 1/160
Procedure: as §1

[10] = target: T2, virus-like particles (VLPs) of BK …; experiment: ELISA on coated VLP; supernatant 1/160
Procedure: as §1

[11] = target: T3, virus-like particles (VLPs) of BK …; experiment: ELISA on coated VLP; supernatant 1/160
Procedure: as §1

[12] = target: T4, virus-like particles (VLPs) of BK …; experiment: ELISA on coated VLP; supernatant 1/160
Procedure: as §1

[13] = target: T1, virus-like particles (VLPs) of BK …; experiment: ELISA on coated VLP; supernatant 1/640
Procedure: as §1

Binder	OD 492 nm [1]	OD 492 nm [2]	OD 492 nm [3]	OD 492 nm [4]	OD 492 nm [5]	OD 492 nm [6]	OD 492 nm [7]	OD 492 nm [8]	OD 492 nm [9]	OD 492 nm [10]	OD 492 nm [11]	OD 492 nm [12]	OD 492 nm [13]
monoclonal antibody ‘H6’ secreted by clone BK6A2H6 (antibody, V domains shown) VH: EVQLQQSGPELVKPGASVKISCKASGYSFTGYFMNWVKQSHGKSLEWIGRINPYNGDTFYNQKFKGKATLTVDKSSSTAHMELLSLTSEDSAVYYCGSYYYGDYFDYWGQGTTLTVSS VL: SIVMTQIPKFLLVSEGDRVTITCKASQSVSNDVAWYQQKSGQSPKLLIYYASNRYTGVPDRFTGSGYGTDFTFTISTVQAEDLAVYFCQQDYSSPLTFGAGTKLELKR	3.18 OD	0.67 OD	0.44 OD	3.38 OD	3.13 OD	0.49 OD	0.22 OD	3.14 OD	3.06 OD	0.4 OD	0.14 OD	3.14 OD	2.49 OD
monoclonal antibody ‘F6’ secreted by clone BK6A2F6 (antibody) heavy: EVQLQQSGPELVKPGASVKISCKASGYSFTGYFMNWVKQSHGKSLEWIGRINPYNGDTFYNQKFKGKATLTVDKSSSTAHMELLSLTSEDSAVYYCGSYYYGDYFDYWGQGTTLTVSSAKTTPPSVYPLAPGSAAQTNSMVTLGCLVKGYFPEPVTVTWNSGSLSSGVHTFPAVLQSDLYTLSSSVTVPSSTWPSETVTCNVAHPASSTKVDKKIVPRDCGCKPCICTVPEVSSVFIFPPKPKDVLTITLTPKVTCVVVDISKDDPEVQFSWFVDDVEVHTAQTQPREEQFNSTFRSVSELPIMHQDWLNGKEFKCRVNSAAFPAPIEKTISKTKGRPKAPQVYTIPPPKEQMAKDKVSLTCMITDFFPEDITVEWQWNGQPAENYKNTQPIMDTDGSYFVYSKLNVQKSNWEAGNTFTCSVLHEGLHNHHTEKSLSHSPGK light: […]	3.16 OD	1.03 OD	0.9 OD	3.19 OD	3.26 OD	0.59 OD	0.44 OD	3.11 OD	3.21 OD	0.4 OD	0.27 OD	3.46 OD	3.07 OD
